Publication PMC9440244, “Structures and implications of the nuclease domain of human parvovirus B19 NS1 protein”

Target: NS1_Nuc WT (nuclease domain of NS1) (human parvovirus B19 (variant …, UniProt A0A097C0M3 2-176))
Assay: EMSA; 1 mM EDTA
Conditions: protein: recombinant, tags: His-SUMO removed by ULP1

Binder | Kd (label: 5'-FAM, single strand) [µM] | Kd (label: 5'-FAM on 67-ori-top, partial duplex over NSBE1-NSBE4, top strand single-stranded elsewhere) [µM]
67-ori-top (ssDNA) DNA: AAAATTTAAAAGAAGACACCAAATCAGATGCCGCCGGTCGCCGCCGGTAGGCGGGACTTCCGGTACA | 12.3 | –
67-ori-top/40-ori-bot (mixed) DNA 1: AAAATTTAAAAGAAGACACCAAATCAGATGCCGCCGGTCGCCGCCGGTAGGCGGGACTTCCGGTACA DNA 2: TGTACCGGAAGTCCCGCCTACCGGCGGCGACCGGCGGCAT | – | ~1
